The values below come from PMC5797019, “Peptide inhibition of the SETD6 methyltransferase catalytic activity” (Oncotarget, 2017).

In the test the target is GST-SETD6 (UniProt Q8TBK2).
Chain of GST-SETD6 (Q8TBK2 whole entry): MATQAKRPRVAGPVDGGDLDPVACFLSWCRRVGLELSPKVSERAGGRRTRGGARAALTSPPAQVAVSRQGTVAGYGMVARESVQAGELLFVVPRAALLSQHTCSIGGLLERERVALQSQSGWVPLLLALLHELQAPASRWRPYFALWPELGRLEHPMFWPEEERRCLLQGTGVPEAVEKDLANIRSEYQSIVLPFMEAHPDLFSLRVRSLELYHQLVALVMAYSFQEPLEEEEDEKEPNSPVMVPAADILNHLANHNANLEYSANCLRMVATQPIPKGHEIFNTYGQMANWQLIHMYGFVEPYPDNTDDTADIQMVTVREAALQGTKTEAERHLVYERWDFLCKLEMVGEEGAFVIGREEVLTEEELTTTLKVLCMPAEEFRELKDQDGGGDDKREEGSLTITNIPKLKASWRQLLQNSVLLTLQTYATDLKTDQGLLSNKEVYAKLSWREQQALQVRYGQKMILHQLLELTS

With “vp22-RelA302-316 peptide (from UniProt Q04206 302-316)”, the auto-methylation signal of recombinant GST-SETD6 (in vitro methylation assay with 3H-labeled S-adenosyl methionine) with increasing amounts of vp22-RelA; significant reduction at 0.5 μM came out at 2 µM.
